Measurements taken from patent US20040096942A1.

Assays:
[1] = target: GAL4CfEcR-DEF (yeast; spruce budworm Choristoneura fumiferana); experiment: cell-based or functional assay
[2] = target: GAL4DmEcR-DEF (yeast; fruit fly Drosophila melanogaster); experiment: cell-based or functional assay

**Q.** How did the maximum fold induction of luciferase reporter, two-hybrid gene switch in NIH3T3 cells (fold induction) [1] turn out when VP16MmRXRα(1-7)-LmUSP(8-12)-EF was run?
**A.** The maximum fold induction of luciferase reporter, two-hybrid gene switch in NIH3T3 cells (fold induction) was 11000.

**Q.** What about the maximum fold induction of luciferase reporter, two-hybrid gene switch in NIH3T3 cells (fold induction) [2] of the same substance?
**A.** The maximum fold induction of luciferase reporter, two-hybrid gene switch in NIH3T3 cells (fold induction) was 1760.
